# Experimental data published in patent US20180162928A1 (Janssen / Centocor, published 2018).
# Numbering of substitutions follows the chain as printed.
# B1: ISOP121AR5P1A8 (designed binder, not shown: small tags and cut ends)
# chain: LPAPKNLVVSRVTEDSARLSWGLEWAYQFFDSFLIQYQESEKVGEAIVLTVPGSERSYDLTGLKPGTEYTVSIYGVYLRAIEFYSNPLSAIFTT
# notes: FN3 domain; E. coli lysate in the ELISA
# B2: ISOP121GR5P1F7 (designed binder, not shown: small tags and cut ends)
# chain: LPAPKNLVVSRVTEDSARLSWTAPDAAFDSFGINYVERASEGEAIDLGVPGSERSYDLTGLKPGTEYFVKIFGVKGGIPSVPLWAWFTT
# notes: as for B1
# B3: ISOP121GR5P1D2 (designed binder, not shown: small tags and cut ends)
# chain: LPAPKNLVVSRVTEDSARLSWTAPDAAFDSFHILYQERAQSGEAIGLVVPGSERSYDLTGLKPATEYSVQIFGVKGGKLSNPLWAWFTT
# notes: as for B1
# B4: ISOP121BR5P1C5 (designed binder, not shown: small tags and cut ends)
# chain: LPAPKNLVVSRVTEDSARLSWFRLRIVQTFDSFLIQYQESEKVGEAIVLTVPGSERSYDLTGLKPGTEYTVSIYGVITVVELLQQSNPLSAIFTT
# notes: as for B1
# B5: ISOP121GR5P1F10 (designed binder, not shown: small tags and cut ends)
# chain: LPAPKNLVVSRVTEDSARLSWTAPDAAFDSFFIDYVERATVGEAIALNVPGSKRSYALTGLKPGTEYFVKIRGVKGGLKSKPLWAWFTT
# notes: as for B1
# B6: ISOP121GR5P1G7 (designed binder, not shown: small tags and cut ends)
# chain: LPAPKNLVVSRVTEDSARLSWTAPDAAFDSFHIRYHEYDKNGEAIQLYVPGSERSYDLTGLKPGTEYGVYIHGVKGGGRSKPLWAHFTT
# notes: as for B1
# B7: ISOP194GR9P1E9 (designed binder, not shown: small tags and cut ends)
# chain: B6 chain with Y70F, H72W, G78L, R79K, H86W
# notes: as for B1
# B8: ISOP121AR5P1H2 (designed binder, not shown: small tags and cut ends)
# chain: LPAPKNLVVSRVTEDSARLSWVIDEFIPLFDSFLIQYQESEKVGEAIVLTVPGSERSYDLTGLKPGTEYTVSIYGVLAKNIGISNPLSAIFTT
# notes: as for B1
# B9: ISOP121BR5P1B5 (designed binder, not shown: small tags and cut ends)
# chain: LPAPKNLVVSRVTEDSARLSWRKQEQYFDSFLIQYQESEKVGEAIVLTVPGSERSYDLTGLKPGTEYTVSIYGVYQRGYHNWFSNPLSAIFTT
# notes: as for B1
# B10: ISOP121BR5P1C6 (designed binder, not shown: small tags and cut ends)
# chain: B9 chain with Q76S, G78P, Y79K, H80A, N81E, W82F, F83T
# notes: as for B1
# B11: ISOP121BR5P1A2 (designed binder, not shown: small tags and cut ends)
# chain: B9 chain with K23F, Q24S, E25Q, Q26E, Y27W, Q76A, Y79I, N81K, F83L
# notes: as for B1
# B12: ISOP121BR5P1E7 (designed binder, not shown: small tags and cut ends)
# chain: B9 chain with Y75K, Q76K, R77W, G78P, Y79S, H80T, N81T, W82T, F83T
# notes: as for B1
# B13: ISOP121FR5P1H8 (designed binder, not shown: small tags and cut ends)
# chain: LPAPKNLVVSRVTEDSARLSWTAPDAAFDSFVIYYSEQHFYGEAIVLTVPGSERSYDLTGLKPGTEYVVKIYGVKGGETSKPLSAIFTT
# notes: as for B1
# Biological target: human serum albumin (human) (UniProt P02768)
# Assay: ELISA, lysate on plate-bound antigen
# Chain of human serum albumin (human) (P02768 25-609 limits assumed): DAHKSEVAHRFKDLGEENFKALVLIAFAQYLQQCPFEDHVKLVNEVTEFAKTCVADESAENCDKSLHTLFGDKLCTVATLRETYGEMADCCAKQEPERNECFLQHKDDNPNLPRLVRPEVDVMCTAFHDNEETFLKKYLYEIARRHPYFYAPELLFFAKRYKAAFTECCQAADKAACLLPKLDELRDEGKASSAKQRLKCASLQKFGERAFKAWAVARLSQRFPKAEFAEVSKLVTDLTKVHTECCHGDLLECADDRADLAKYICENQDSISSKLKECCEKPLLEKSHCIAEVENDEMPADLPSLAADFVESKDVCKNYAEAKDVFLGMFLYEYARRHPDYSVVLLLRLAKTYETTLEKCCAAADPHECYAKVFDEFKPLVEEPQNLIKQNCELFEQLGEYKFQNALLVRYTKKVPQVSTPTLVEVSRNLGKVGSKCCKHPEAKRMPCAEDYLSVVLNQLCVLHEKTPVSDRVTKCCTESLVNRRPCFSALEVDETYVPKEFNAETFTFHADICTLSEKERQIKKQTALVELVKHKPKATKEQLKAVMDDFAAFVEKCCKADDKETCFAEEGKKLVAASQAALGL
row,ELISA HSA (RSU),Binder
1,1040,B1
2,720,B2
3,640,B3
4,720,B4
5,640,B5
6,800,B6
7,1200,B7
8,1120,B8
9,400,B9
10,720,B10
11,800,B11
12,640,B12
13,640,B13

# Biological target: unrelated Fc-fused recombinant protein
# Assay: ELISA, lysate on plate-bound antigen
row,ELISA Fc Control (RSU),Binder
1,560,B1
2,640,B2
3,720,B3
4,400,B4
5,640,B5
6,800,B6
7,720,B7
8,880,B8
9,720,B9
10,720,B10
11,720,B11
12,800,B12
13,560,B13

# Biological target: T1, recombinant biotinylated PD-L1 (rhPD-L1/Fc Chimera, R&D Systems 156-B7) (human, UniProt Q9NZQ7 19-238, biotinylated (sites not given))
# T1 construct: Bought Fc chimera; also called human PD-L1
# Assay: ELISA, lysate on plate-bound antigen
# Experimental: Streptavidin-coated Maxisorp plates (Nunc catalog 436110) were blocked for 1 h in Starting Block T20 (Pierce) and then coated with biotinylated PD-L1 (using same antigen as in panning) or negative controls (an unrelated Fc-fused recombinant protein and human serum albumin) for 1 h. Plates were rinsed with TBST and diluted lysate was applied to plates for 1 h. Following additional rinses, wells were treated with HRP-conjugated anti-FN3 domain antibody (PAB25) for 1 h and then assayed with POD (Roche catalog 11582950001).
# T1 sequence (Q9NZQ7 19-238, change not shown): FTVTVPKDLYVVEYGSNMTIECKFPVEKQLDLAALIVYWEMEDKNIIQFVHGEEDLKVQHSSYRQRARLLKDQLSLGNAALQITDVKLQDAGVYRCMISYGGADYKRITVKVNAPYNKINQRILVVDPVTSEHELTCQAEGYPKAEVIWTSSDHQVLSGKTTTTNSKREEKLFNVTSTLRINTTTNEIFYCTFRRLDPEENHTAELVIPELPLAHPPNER
row,ELISA PD-L1 Fc (RSU),Binder
1,516000,B1
2,697000,B2
3,513000,B3
4,11700,B4
5,577000,B5
6,368000,B6
7,2.82e+06,B7
8,927000,B8
9,1.48e+06,B9
10,13400,B10
11,743000,B11
12,412000,B12
13,431000,B13
